Reference: article PMC8635433

Legend:
[1] = biological target: ChAdOx1 fiber knob protein (chimpanzee adenovirus Y25); assay: crystal structure; ChAdOx1 fiber knob, P1, 1.59 Å, four trimers in the asymmetric unit
[2] = biological target: coxsackie and adenovirus receptor (CAR), immobilised for SPR (UniProt P78310); assay: SPR; BIAcore T200; about 2000 RU of CAR, DSG2 and CD46 amine-coupled to a CM5 chip; fiber knob proteins flowed over, 1:2 serial dilutions; 25°C, PBS with 0.001% P20, 30 μl/min; 1:1 interaction model
[3] = biological target: ChAdOx1 hexon (chimpanzee adenovirus Y25); assay: cryo-EM structure
[4] = biological target: ChAdOx1 pIX (chimpanzee adenovirus Y25); assay: cryo-EM structure
[5] = biological target: ChAdOx1 penton protein (chimpanzee adenovirus Y25); assay: cryo-EM structure
CAR on CHO-CAR cells = CAR on CHO-CAR cells (UniProt P78310); assay: flow cytometry on cells; antibody binding inhibition: serial dilutions of fiber knob (0.00001 to 100 μg per 10^5 cells) on CHO-CAR or CHO-BC1 cells, 30 min on ice, then anti-CAR RmcB or anti-CD46 MEM-258 and Alexa Fluor 488 secondary antibody; IC50 by nonlinear regression
Sequence of CAR on CHO-CAR cells (P78310 20-365): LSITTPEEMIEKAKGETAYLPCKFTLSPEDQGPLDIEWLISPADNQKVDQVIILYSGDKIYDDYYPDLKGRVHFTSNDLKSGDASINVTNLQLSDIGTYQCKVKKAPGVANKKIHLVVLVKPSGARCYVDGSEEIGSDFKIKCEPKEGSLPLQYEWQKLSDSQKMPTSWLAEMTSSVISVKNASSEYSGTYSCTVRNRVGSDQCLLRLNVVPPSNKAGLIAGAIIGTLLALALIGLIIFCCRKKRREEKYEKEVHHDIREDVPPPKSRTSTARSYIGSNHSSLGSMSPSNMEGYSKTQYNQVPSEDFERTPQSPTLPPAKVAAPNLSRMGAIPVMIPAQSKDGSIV

[6] = biological target: human adenovirus type 26 (HAdV-D26) viral vector (virus particle) (human adenovirus type 26); assay: SPR
[7] = biological target: human adenovirus type 5 (HAdV-C5) viral vector (virus particle) (human adenovirus type 5) (UniProt P04133); assay: SPR
[8] = biological target: AZD1222 vaccine preparation of ChAdOx1 (ChAdOx1 nCoV-19) (chimpanzee adenovirus Y25); assay: SPR

ChAdOx1 fiber knob protein (domain or fragment)
stoichiometry N [1]: 3

ChAdOx1 fiber knob protein (domain or fragment; other documents disagree on this pair)
Kd [2]: 7.16 nM

ChAdOx1 hexon (natural protein)
stoichiometry N [3]: 3

ChAdOx1 pIX (natural protein)
stoichiometry N [4]: 4

ChAdOx1 penton protein (natural protein)
stoichiometry N [5]: 5

HAdV-B35 fiber knob protein (domain or fragment)
fold higher IC50 (reference not named: HAdV-C5 or ChAdOx1 fiber knob) (CAR on CHO-CAR cells): > 1000 fold

platelet factor 4 (PF4) (natural protein)
Kd [6]: 301 nM | Kd [7]: 789 nM | Kd [8]: 514 nM
